The supplement of paper PMC5998384

Tested on: HeLa Kyoto
Experiment: solubility change mitosis vs G1/S (difference of NP-40 vs SDS log2 ratios) (log2 ratio difference); higher = more soluble in mitosis
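Also: synchronized HeLa Kyoto cells (double thymidine block for G1/S, nocodazole release for mitosis), protein amounts in NP-40 versus SDS lysates quantified by mass spectrometry, three biological replicates.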

Substance | solubility change mitosis (log2)
KIAA1524 | -0.103
SUB1 | 0.154
NUDT5 | 0.0137
ARPC4 | -0.115
MRPL10 | -0.0658
RPL7 | 0.696
RBM8A | 0.468
CAPZA1 | -0.0799
POLR2C | 0.102
MRPL37 | -0.0819
RAN | 0.0277
MRPL14 | 0.104
SETDB1 | -0.0625
MRPL39 | -0.14
ACADSB | -0.0159
RPS12 | 0.588
RPL11 | 0.596
OXA1L | -0.112
RPS27A | 0.852
RSL1D1 | 1.5
RPL34 | 0.894
CAMKMT | 0.137
MTOR | -0.154
FMR1 | 0.261
CTBP1 | -0.0691
